Four substances from patent US6586402B1, “LH-RH peptide analogues, their uses and pharmaceutical compositions containing them” (Laboratoire Theramex, priority 1997, dated 2003) can be followed below.

By pKi is commonly meant the Ki on a negative log10 scale, so that one unit is a factor of ten. Read a low pKi as a high Ki.

Experiment [1] concerns the target LH-RH receptors (membrane fractions of pituitaries from female Sprague Dawley rats) (rat (female Sprague Dawley)) (UniProt P30969). Briefly: competition with [125I]-buserelin, rat pituitary membranes.
Experiment [2] has the same target. As to the kind of experiment: competition with [125I]-buserelin, rat pituitary membranes; Ki by Cheng-Prusoff.

Sequence of LH-RH receptors (membrane fractions of pituitaries from female Sprague Dawley rats) (rat (female Sprague Dawley)) (P30969 whole entry): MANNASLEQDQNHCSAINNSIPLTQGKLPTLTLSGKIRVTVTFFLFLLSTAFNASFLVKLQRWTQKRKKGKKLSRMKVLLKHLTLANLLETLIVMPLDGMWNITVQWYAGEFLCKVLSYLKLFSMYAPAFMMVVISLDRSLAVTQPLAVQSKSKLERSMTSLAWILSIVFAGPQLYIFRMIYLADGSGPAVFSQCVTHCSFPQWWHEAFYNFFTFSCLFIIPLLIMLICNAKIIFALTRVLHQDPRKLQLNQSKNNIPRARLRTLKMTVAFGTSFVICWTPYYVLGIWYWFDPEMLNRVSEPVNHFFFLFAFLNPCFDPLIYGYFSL

For the substance Buserelin (peptide), the pKi in experiment [1] is > 9 -log Ki; in experiment [2] it was 9.35 -log Ki.
On the same counts, the results for Antide (peptide) are > 9 -log Ki and 9.16 -log Ki.
On the same counts, the results for Histrelin (peptide) are > 9 -log Ki and 9.98 -log Ki.
Deslorelin (peptide): the values for the negative-log Ki (pKi) in experiment [1] and in experiment [2] were > 9 -log Ki and 9.9 -log Ki, respectively.
